Test results: patent US20220204599A1 (published 2022)
Substitutions are numbered along the chain they refer to. Read-outs that look alike come from different tables or passages of the source.

B1: hCMAb45 humanized anti-CTHRC1 antibody (antibody, V domains shown)
VH: QVQLVESGAEVKKPGASVKVSCKASGYSFTDYIILWVRQAPGQGLEWMGAINPYYGSTVYGQKFQGRLTITADGSMSTAYMELSSLRSEDTAVYYCARSGYGYDESAMDYWGQGTLVTVSS
VL: DIVMTQTPLSLPVTPGEPASISCRSSKSLLNSDGFTYLDWYLQKPGQSPQLLIYLVSNRFSGVPDRFSGSGSGTDFTLKISRVEAEDVGVYYCFQSNYLPLTFGQGTKLEIK
B2: CTHRC1-His (other)
chain: GAVGASEIPKGKQKAQLRQREVVDLYNGMCLQGPAGVPGRDGSPGANGIPGTPGIPGRDGFKGEKGECLRESFEESWTPNYKQCSWSSLNYGIDLGKIAECTFTKMRSNSALRVLFSGSLRLKCRNACCQRWYFTFNGAECSGPLPIEAIIYLDQGSPEMNSTINIHRTSSVEGLCEGIGAGLVDVAIWVGTCSDYPKGDASTGWNSVSRIIIEELPKLAASANSAVDHHHHHHHH
B3: cCMAb45 anti-CTHRC1 chimeric antibody (antibody, V domains shown)
VH: EVQLQQSGPELVKPGASVKISCKASGYSFTDYIMLWVKQSHGKSLEWIGNINPYYGSTSYNLKFKGKATLTVDKSSSTAYMQLNSLTSEDSAVYYCARSGYGYDESAMDYWGQGTSVTVSS
VL: B1 VL with I2V, V3L, T14N, P15I, E17D, P18Q, R24K, S26T, V88L, Q105S
B4: hCMAb96 humanized anti-CTHRC1 antibody (antibody, V domains shown)
VH: QVQLVQSGAEVKKPGASVKVSCKASGYTFTSYWMHWVRQAPGQGLEWIGYIYPSSGTTNYNQKFQGRVTITADESTSTAYMELSPLRSEDTAVYYCTTESYWGQGTTVTVSS
VL: DIQMTQSPSSLSASLGDTITITCHASQNINVWLAWYQQKPGKAPKLLIYKASNLHSGVPSRFSGSGSGTDFTLTISSLQPEDIATYYCQQGQSYPLTFGQGTKVEIK
B5: cCMAb96 anti-CTHRC1 chimeric antibody (antibody, V domains shown)
VH: QVQLQQPGSELVRPGASVKLSCKASGYTFTSYWMHWVKQRPGQGLEWIGNIYPSSGTTNYDEKFKNKATLTVDTSSTTAYMHLSSLTSEDSAVYYCTTESYWGQGTTLTVSS
VL: B4 VL with Q3V, A34S, K42N, A43I, S56T, D70G, Q100G, V104L

Tests used:
Test in all cases: ELISA
CTHRC1-His [1] = molecular target: B2
CTHRC1-His [2] = molecular target: B2; remark: listed apart in the source
SA2773 = molecular target: SA2773
SA2760 = molecular target: SA2760
SA2758 = molecular target: SA2758
SA2766 = molecular target: SA2766
SA2763 = molecular target: SA2763
SA2764 = molecular target: SA2764
SA2771 = molecular target: SA2771
SA2767 = molecular target: SA2767
SA2772 = molecular target: SA2772

A Kd (CTHRC1-His [1]) of 0.128 nM and a Kd (CTHRC1-His [2]) of 0.089 nM were found for B1 in this work.

A Kd (SA2773) of 0.3 nM, a Kd (SA2760) of 0.118 nM and a Kd (SA2758) of 0.082 nM were found for B2 in this work. It also gave a Kd (SA2766) of 0.202 nM, a Kd (SA2763) of 0.25 nM and a Kd (SA2764) of 0.175 nM. The Kd (SA2771) was 0.221 nM, the Kd (SA2767) was 0.48 nM and the Kd (SA2772) was 0.406 nM.

A Kd (CTHRC1-His [1]) of 0.257 nM and a Kd (CTHRC1-His [2]) of 0.093 nM were found for B3 in this work.

A Kd (CTHRC1-His [1]) of 0.196 nM and a Kd (CTHRC1-His [2]) of 0.131 nM were found for B4 in this work.

A Kd (CTHRC1-His [1]) of 0.187 nM and a Kd (CTHRC1-His [2]) of 0.128 nM were found for B5 in this work.
